The text below walks through data of EP2878677A1, “Activators of protein phosphatase 5” (Deutsches Zentrum für Neurodegenerative Erkrankungen e.V. …, priority 2013, dated 2015).

The target in this assay is YFP-Hsp90/DAF-21 (N-terminal YFP-tagged Hsp90) (C. elegans) (UniProt Q18688). Nature of the assay: sedimentation velocity AUC with fluorescence detection; 300 nM YFP-Hsp90, 3 uM PPH-5; YFP-Hsp90 alone 6.8 S.

As for “PPH-5 (C. elegans protein phosphatase 5) (enzyme)”, the sedimentation coefficient (s20,w) of YFP-Hsp90 in complex with PPH-5 came to 8.9 S.
